For 15 sequences, protein production results are on record in a protein production outcome set (Wang et al. 2014).

The nature of this data set: label from the status in PepcDB records.

In the case of “EEWLDILGNGLLRKKTLVPGPPGSSRPVKGQVVTVHLQTSLENGTRVQEEPELVFTLGDCDVIQALDLSVPLMDVGETAMVTADSKYCYGPQGSRSPYIPPHAALCLEVTLKTAVDRPDLEM”, the protein production entry is recorded as “not failed”.
The value for “EFVINPNGKSEVCILHEYMQRVLKVRPVYNFFECENPSEPFGASVTIDGVTYGSGTASSKKLAKNKAARATLEILIPDFVKQTSE” was “not failed”.
In the case of “EIEICPKVTQSIHIEKSDTAADTYGFSLSSVEEDGIRRLYVNSVKETGLASKKGLKAGDEILEINNRAADALNSSMLKDFLSQPSLGLLVRTYPELEEGVE”, the protein production result was “not failed”.
The value for “EIILANISDTVFVTDLSGKFTFICSNIDNIFGYSLAEVNAMGTVETLLGDFRFNEYELKEKGELKNLRHDVQDKQGKIHYLLINLKKVAINGGIYLYSCRDISE” was “failed”.
Under “EKITILADAIPELHVEEANDKVMGSIDWEAALKQSAGKEDLAQEMLQMLVDFIPEVNEWIDKALESDISEEELCHYIHKLHGSSSYCGVPRLKQLCNLIETSLRQHQTISDIEPELFELQDEMEKVTKDANLLLSN” stands “not failed”.
The value for “ELDDATCDDIYSGYLKAYEQNWTAYPDAKGVLDRAVATGAPVGILTNGAAPMQQDKLDRTGLGLPELVMLAASTLDSAKPRPEMYARALTHLGARTATIIGDDWTNDVAAPRELGWNALYLDRSGTDPRADIHSLDELFH” was “failed”; that for “ELREARLNAFFSGAPVGMSILDNQLRFVQINELIAHIHGKPAQEHIGKTLEEIAPRIAPLVTPLCQKVLLTGQPILNVELSLPAVNQADSLRHFLVSYFPIPGEGNQLSGVGKVIVEISDVYDELRLRKRAEEALKESI” was “not failed”.
As for “EMVDDQAMNEQLYYYFDPGDFKPPLVVYFSGFRLALGVEGANMMRALEAPALIFGEQRILGGSFYVGSKKFEQEIVRIIQTTLKKLGFTANQLVLSGLSMGTYASLYY”, the protein production result is “failed”.
In the case of “ENGSRKQLYRLDLKTLEISQIQTGEDVVQWFGVATDNGAVWYSGQSANNADRLYRLDGTKGKLVWDLSAEKLANIDFTPARDWNYTAPDGTVVEGWYYLPPQFDPSKKYPMLVYYYGGTSPINRTLEGHYSLAMYAAQGYVVYTLNPSGTTGYGQEYAARHVNAWGDRTADEIIGATKEFIRTHSFVNGKK”, the protein production result was “failed”.
As to “ENIKTILLTVLVVISLVFTWGIWTFQPNFSEGSSSTESTVRVKHKIEKTTQKLSETVRPRDMFIHDDGAHYKVDDNALYEEIWSDLPHWDVKGIKDISDQYDKAGFKSWFYGIGGSEAKLDLQFSDTIPIDIFQTLFKWSNQSFEYSSFDHILIPFNETKANKKIYLVSYSKQLILEVTVESANYRNIMNDLKNRQSNMPAFSLFSIGSKKEFLLPNKPLTMDKKEFVTESIKTNTFKQALFSDPSIVREDSNYNNRNVLTDGISRLDVNLSQRQVQFQQRNLVQSTSYQTGELIKKSQKYLEDTGSWTDHYQFFNINDSQQLSFYIFMDQIPVINSTAKPFGATSAITVQWANDDILSYKRPNYSLGTNPIKTSETELMGGSEVKMLLSKQTAYDTDKIDQIFLAYQLVSTSTNDDPLVELEPVWAMKVNGKIVPITKDLLRKEGANSGVE”, the protein production result was “failed”.
With “EPAPRGFLLIGANRVAREIGQALARYDRRVLMTDSNWEYISQVRMMGLDYYYGNPISSHADDNLNMIGIGQVVALTPDQHFNIMACMQF”, the protein production entry is “failed”.
Take “EPEKLGQALTEVYAKANSFTVSSVAAPSWLHRFIIGKKGQNLAKITQQMPKVHIEFTEGEDKITLEGPTEDVSVAQEQIEGMVKDLINR”: the protein production entry is given as “not failed”.
Regarding “EPPDERAVADGWQQLVELGAVDSQHVLTAIGREMARLPVDVKSARMLVAARQHGCVHEMTVIAAFLGVQDPRERPPEAREAADNAHAKFADAR”, the protein production entry is reported as “not failed”.
On to “EQEDKVSGEKTLAVVSASSDDRPSTRGIINDNTYALGVFRTTANTYAPLYNVKHIYSGGEWGADDVIKVDYRNASFFAYYPYHTATGNYAGLAGGTTLTLQAQLFNAGEDICYGAGEASGGGPVSVYNPFVEFLNMKHAYARLRLTLTRGEKFDKTKKCNIQNITFKSNNANFYLTRSLDIASTAGATGGSAVAAGYVHNPNVNIATGKSVTYEYMFPPQPLDGSKLTILVTVDGVTRSCDISTLGSSLDSGKYYGVSLTFTDVGIILSSAVVTVNNFGGQGNTQVDTEL”, for which the protein production entry is “not failed”.
Consider “EQQADGTWLMDGWISIRKASNLLEHDLVDEAERYSTLGGYLLWQFGYIPAAGEQITVDGLIFEIVSVNKHNIGKVRVHRTQ”, for which the protein production result was “not failed”.
